Data from the DeepSol protein solubility set.

Experiment: soluble on expression in E. coli; label from the status in PepcDB or PDB records

Sequence | soluble on expression in E. coli
MEEYKLSHLKELEAESIHIIREVAAEFENPVMLYSIGKDSSVMVRLAEKAFYPGKVPFPLMHIDSKWKFKEMIQFRDEYAKKHGWNLIVESNMEAFHAGVGPFTHGSKVHTDLMKTQALLHALDKYKFDAAFGGARRDEEKSRAKERIFSFRDKFHQWDPKNQRPELWDIYNARVHKGESIRVFPISNWTELDIWQYIRLENIPIVPLYYAKERPVINLDGNIIMADDDRLPEKYRDQIEMKMVRFRTLGCWPLTGAVESGAATIEEIVEEMMTTTKSERTTRVIDFDQEGSMEQKKREGYF | not soluble
MEFDYVICEECGKEFMDSYLMDHFDLPTCDDCRDADDKHKLITKTEAKQEYLLKDCDLEKREPPLKFIVKKNPHHSQWGDMKLYLKLQIVKRSLEVWGSQEALEEAKEVRQ | soluble
MEFHFFGTGSGVPSIERNVSACAVRFLQQRGKQWLFDCGEATQHQILRSSIALGKIERIFITHLHGDHIFGLPGLLGSRSFQGGENPLFLYGPKGIRSFVETALQVSNTHVKYELTIEEFSEPGLLFHEEGFKVETILLDHVMPCYAFKVTEDDRPGELLVDRLKAKGVPPGPLYRKIQQGETVELPTGERLEANAFLGPPKRGRSFVLAGDTRPVKELIPFAKNVNVLIHEATFLDDKKGHAHEYGHSTMADAIQLAKQANVDHLILTHISSRYHDMSDELQKKAQNAFANAVVAHDFYVFHLPLAKGLEHHHHHH | not soluble
MEFKVEDDRISLYADSKRVSWVLYRKHSGEIELLATFTAKGEEGKGYASKVVGEALNYARGFEKIKVSCPYIKSWIEKHGFDRDVEYTKLLEFKEAVEKFNRFHSPEAVAEFMKEEGEVVYVRFTGPFCVSCGVYDYFEDLTQDAEVLDYEEVEDGFIVRYRLL | not soluble
MEFRKEVEVAKILVGGKVEENVVEIRYDPLTLQTSRILKKTIPMQSGDFQEEIDSTRSWCPFCPERIEQMVSRDPEIMEGELWKRGEAVLFSNLTPYSKYSLVLRLTEEHYVPVSEFKSQHFFDAFKLIQEYVKKVPEGKYYVTIGMNYLKPSGSSIMHPHIQVMISEVSTDYFARLDWSALEFKESNGVDYWKKLAEVEKGGERYIGSTDKTEWVAAFAPKGFFHFTGIPEEREFMQMSDEQLKGIAEGIAKILRYYGRKNLNAFNFSMFCADRIGDHFRTNINIVARTPFAKYYWCDVFYPKMFHDESVVFFVPEEYAKEIREIWSEL | not soluble
MEGDTVHWQTHTVFNQPIPLNNSNLYLSDGALCEAVTREGAGWDSDFLASIGQQLGTAESLELGRLANVNPPELLRYDAQGRRLDDVRFHPAWHLLMQALCTNRVHNLAWEEDARSGAFVARAARFMLHAQVEAGSLCPITMTFAATPLLLQMLPAPFQDWTTPLLSDRYDSHLLPGGQKRGLLIGMGMTEKQGGSDVMSNTTRAERLEDGSYRLVGHKWFFSVPQSDAHLVLAQTAGGLSCFFVPRFLPDGQRNAIRLERLKDKLGNRSNASCEVEFQDAIGWLLGQEGEGIRLILKMGGMTRFDCALGSHAMMRRAFSLAIYHAHQRHVFGNPLIQQPLMRHVLSRMALQLEGQTALLFRLARAWDRRADAKEALWARLFTPAAKFVICKRGMPFVAEAMEVLGGIGYCEESELPRLYREMPVNSIWEGSGNIMCLDVLRVLNKQAGVYDLLSEAFVEVKGQDRYFDCAVRRLQQQLRKPAEELGREITHQLFLLGCGAQMLKYASPPMAQAWCQVMLDTRGGVRLSEQIQNDLLLRATGGVCV | not soluble
MEGIIVRRVIPSDNSCLFNAIGYVMDKDKNKAPELRQVIAAAVASNKEKYNEAFLGKLNEEYCAWILNPDKWGGAIELSILADYYGREIAAYDIQTSRCDLYGQTRNYDERVMLIYDGLHYDALALSPFEGAEEDFDMTIYPVGKDRSIGSIEGLALNLVKDQQRKRSYTDTANFTLRCGVCQIGVIGQKEAVEHAQATGHVNFQEYK | soluble
MEGISNFKTPSKLSEKKKSVLCSTPTINIPASPFMQKLGFGTGVNVYLMKRSPRGLSHSPWAVKKINPICNDHYRSVYQKRLMDEAKILKSLHHPNIVGYRAFTEANDGSLCLAMEYGGEKSLNDLIEERYKASQDPFPAAIILKVALNMARGLKYLHQEKKLLHGDIKSSNVVIKGDFETIKICDVGVSLPLDENMTVTDPEACYIGTEPWKPKEAVEENGVITDKADIFAFGLTLWEMMTLSIPHINLSNDDDDEDKTFDESDFDDEAYYAALGTRPPINMEELDESYQKVIELFSVCTNEDPKDRPSAAHIVEALETDV | soluble
